Target: recombinant human protective protein/cathepsin A (rhPPCA), 54-kDa precursor form (human)
Test: SEC

“recombinant human protective protein/cathepsin A (rhPPCA), 54-kDa precursor form (enzyme)” was tested, and the stoichiometry N was 2.
